Publication PMC10783490, “Biochemical and cellular insights into the Baz2B protein, a non-catalytic subunit of the chromatin remodeling complex” (Nucleic Acids Research, 2023)

Legend:
BRD Baz2B = target: T1, BRD Baz2B (Homo sapiens, UniProt Q9UIF8 2060-2164); assay: EMSA; up to 112 uM, one pot; EMSA: 20 mM HEPES pH 7.5, 30 mM KCl, 1 mM EDTA, 10 mM (NH4)2SO4, 1 mM DTT, 4 C, 10 nM probe; MST: same plus 0.1 ug/ml BSA, 5 nM probe, 25 C; GST-AT-hook and bromodomain EMSA as in cited refs; conditions: protein: recombinant, tags: His6
T1 sequence: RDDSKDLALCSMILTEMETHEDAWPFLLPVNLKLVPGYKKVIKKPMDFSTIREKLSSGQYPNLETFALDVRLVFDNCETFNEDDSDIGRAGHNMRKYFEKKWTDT

BRD Brg1 [1] = target: T2, BRD Brg1 (UniProt P51532 1453-1564); assay: EMSA; one pot with triplex and duplex; EMSA: 20 mM HEPES pH 7.5, 30 mM KCl, 1 mM EDTA, 10 mM (NH4)2SO4, 1 mM DTT, 4 C, 10 nM probe; MST: same plus 0.1 ug/ml BSA, 5 nM probe, 25 C; GST-AT-hook and bromodomain EMSA as in cited refs; conditions: protein: recombinant; tags: His6
BRD Brg1 [2] = target: T2, BRD Brg1; assay: EMSA; one pot with duplex and TFO; EMSA: 20 mM HEPES pH 7.5, 30 mM KCl, 1 mM EDTA, 10 mM (NH4)2SO4, 1 mM DTT, 4 C, 10 nM probe; MST: same plus 0.1 ug/ml BSA, 5 nM probe, 25 C; GST-AT-hook and bromodomain EMSA as in cited refs; conditions: protein: recombinant; tags: His6; triplex, third strand TFO
BRD Brg1 [3] = target: T2, BRD Brg1; assay: EMSA; one pot with triplex and TFO; EMSA: 20 mM HEPES pH 7.5, 30 mM KCl, 1 mM EDTA, 10 mM (NH4)2SO4, 1 mM DTT, 4 C, 10 nM probe; MST: same plus 0.1 ug/ml BSA, 5 nM probe, 25 C; GST-AT-hook and bromodomain EMSA as in cited refs; conditions: protein: recombinant; tags: His6; blunt
TAM-AT1-AT2 Baz2B R781E = target: T3, TAM-AT1-AT2 Baz2B R781E (Homo sapiens, UniProt Q9UIF8 721-884, R781E); assay: EMSA; EMSA: 20 mM HEPES pH 7.5, 30 mM KCl, 1 mM EDTA, 10 mM (NH4)2SO4, 1 mM DTT, 4 C, 10 nM probe; MST: same plus 0.1 ug/ml BSA, 5 nM probe, 25 C; GST-AT-hook and bromodomain EMSA as in cited refs; conditions: protein: recombinant; tags: His6; blunt
T3 sequence: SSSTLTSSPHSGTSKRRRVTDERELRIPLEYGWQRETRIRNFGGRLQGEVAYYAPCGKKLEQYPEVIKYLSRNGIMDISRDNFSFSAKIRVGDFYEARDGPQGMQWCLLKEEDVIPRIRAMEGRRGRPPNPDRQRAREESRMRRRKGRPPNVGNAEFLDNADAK

TAM-AT1-AT2 Baz2B L766A = target: T4, TAM-AT1-AT2 Baz2B L766A (Homo sapiens, UniProt Q9UIF8 721-884, L766A); assay: as above; conditions: protein: recombinant; tags: His6; blunt
T4 sequence: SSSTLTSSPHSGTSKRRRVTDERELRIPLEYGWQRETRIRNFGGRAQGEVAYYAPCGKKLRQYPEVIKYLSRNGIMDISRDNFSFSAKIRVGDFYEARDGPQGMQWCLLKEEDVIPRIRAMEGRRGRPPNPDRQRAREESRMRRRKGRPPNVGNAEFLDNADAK

TAM-AT1-AT2 Baz2B [4] = target: T5, TAM-AT1-AT2 Baz2B (Homo sapiens, UniProt Q9UIF8 721-884); assay: as above; conditions: protein: recombinant; tags: His6; blunt
T5 sequence: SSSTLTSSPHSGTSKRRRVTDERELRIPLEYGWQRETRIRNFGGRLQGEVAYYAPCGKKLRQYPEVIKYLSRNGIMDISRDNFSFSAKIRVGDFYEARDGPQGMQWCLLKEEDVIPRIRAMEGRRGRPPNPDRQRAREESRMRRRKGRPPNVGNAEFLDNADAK

TAM-AT1-AT2 Baz2B Q767A = target: T6, TAM-AT1-AT2 Baz2B Q767A (Homo sapiens, UniProt Q9UIF8 721-884, Q767A); assay: as above; conditions: protein: recombinant; tags: His6; blunt
T6 sequence: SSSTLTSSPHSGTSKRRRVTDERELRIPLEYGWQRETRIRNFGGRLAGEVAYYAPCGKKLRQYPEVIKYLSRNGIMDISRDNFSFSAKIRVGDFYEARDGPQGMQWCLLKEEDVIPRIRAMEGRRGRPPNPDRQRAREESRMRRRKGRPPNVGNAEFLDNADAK

TAM-AT1-AT2 Baz2B R765E = target: T7, TAM-AT1-AT2 Baz2B R765E (Homo sapiens, UniProt Q9UIF8 721-884, R765E); assay: as above; conditions: protein: recombinant; tags: His6; blunt
T7 sequence: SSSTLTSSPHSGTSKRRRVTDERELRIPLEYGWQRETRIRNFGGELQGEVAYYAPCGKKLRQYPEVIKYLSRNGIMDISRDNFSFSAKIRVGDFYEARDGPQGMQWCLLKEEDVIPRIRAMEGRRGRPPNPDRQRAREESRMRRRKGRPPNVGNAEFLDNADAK

TAM-AT1-AT2 Baz2B R760E = target: T8, TAM-AT1-AT2 Baz2B R760E (Homo sapiens, UniProt Q9UIF8 721-884, R760E); assay: as above; conditions: protein: recombinant; tags: His6; blunt
T8 sequence: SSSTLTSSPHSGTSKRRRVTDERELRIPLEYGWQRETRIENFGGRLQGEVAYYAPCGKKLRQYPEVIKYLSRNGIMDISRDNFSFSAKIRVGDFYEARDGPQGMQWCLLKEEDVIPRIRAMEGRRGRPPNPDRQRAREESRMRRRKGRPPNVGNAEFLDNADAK

TAM Baz2B = target: T9, TAM Baz2B (Homo sapiens, UniProt Q9UIF8 721-843); assay: as above; conditions: protein: recombinant; tags: His6; blunt
T9 sequence: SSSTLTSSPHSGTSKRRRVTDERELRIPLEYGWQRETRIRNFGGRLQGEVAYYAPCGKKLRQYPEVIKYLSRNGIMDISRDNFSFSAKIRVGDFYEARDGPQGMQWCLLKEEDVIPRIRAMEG

TAM-AT1-AT2 Baz2B R837E = target: T10, TAM-AT1-AT2 Baz2B R837E (Homo sapiens, UniProt Q9UIF8 721-884, R837E); assay: as above; conditions: protein: recombinant; tags: His6; blunt
T10 sequence: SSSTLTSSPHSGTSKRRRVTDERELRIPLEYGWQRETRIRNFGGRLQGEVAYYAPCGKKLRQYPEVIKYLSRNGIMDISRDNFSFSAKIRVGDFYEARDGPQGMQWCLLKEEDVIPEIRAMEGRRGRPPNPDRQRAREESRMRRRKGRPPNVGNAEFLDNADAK

TAM-AT1-AT2 Baz2B [5] = target: T5, TAM-AT1-AT2 Baz2B; assay: EMSA; mutant series; EMSA: 20 mM HEPES pH 7.5, 30 mM KCl, 1 mM EDTA, 10 mM (NH4)2SO4, 1 mM DTT, 4 C, 10 nM probe; MST: same plus 0.1 ug/ml BSA, 5 nM probe, 25 C; GST-AT-hook and bromodomain EMSA as in cited refs; conditions: protein: recombinant; tags: His6; blunt
GST-AT1-AT2 Baz2A = target: T11, GST-AT1-AT2 Baz2A (UniProt Q91YE5 641-674); assay: EMSA; 1.25 uM DNA, 3.6 or 14.4 uM protein; EMSA: 20 mM HEPES pH 7.5, 30 mM KCl, 1 mM EDTA, 10 mM (NH4)2SO4, 1 mM DTT, 4 C, 10 nM probe; MST: same plus 0.1 ug/ml BSA, 5 nM probe, 25 C; GST-AT-hook and bromodomain EMSA as in cited refs; conditions: protein: recombinant; tags: GST; label: none (SybrSafe); blunt
T11 chain: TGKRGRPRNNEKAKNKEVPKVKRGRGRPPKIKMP

T2 sequence (P51532 1453-1564): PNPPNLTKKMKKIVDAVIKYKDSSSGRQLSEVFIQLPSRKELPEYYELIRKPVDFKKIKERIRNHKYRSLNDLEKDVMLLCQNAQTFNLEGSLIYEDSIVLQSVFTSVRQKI

Binder: GGAGGAAAAAAGAAAAAAAAAAAAAAAGA (ssDNA) [TFO #5 (29 nt ssDNA)]
- binding result (BRD Baz2B): no binding
- binding result (BRD Brg1 [1]): no binding

B1: DNA triplex En3_D + TFO #5 (structured_DNA)
DNA 1: TCTTTTTTTTTTTTTTTCTTTTTTCCTCC
DNA 2: GGAGGAAAAAAGAAAAAAAAAAAAAAAGA
DNA 3: GGAGGAAAAAAGAAAAAAAAAAAAAAAGA
- binding result (BRD Baz2B; triplex, third strand TFO): no binding
- binding result (BRD Brg1 [2]): binds

B2: En3_D 29 bp dsDNA (dsDNA)
DNA 1: TCTTTTTTTTTTTTTTTCTTTTTTCCTCC
DNA 2: GGAGGAAAAAAGAAAAAAAAAAAAAAAGA
- binding result (BRD Baz2B; blunt): no binding
- binding result (BRD Brg1 [3]): binds

B3: 45 bp dsDNA FLP015/FLP016 (dsDNA)
DNA 1: ATCAGTTCTCCGGGTTGTCAGGTCGACCAGTTGTTCCTTTGAGGT
DNA 2: ACCTCAAAGGAACAACTGGTCGACCTGACAACCCGGAGAACTGAT
- Kd (TAM-AT1-AT2 Baz2B R781E): 232 ± 101 nM
- Kd (TAM-AT1-AT2 Baz2B L766A): 98.1 ± 29.5 nM
- Kd (TAM-AT1-AT2 Baz2B [4]): 82.2 nM
- Kd (TAM-AT1-AT2 Baz2B Q767A): 440 ± 256 nM
- Kd (TAM-AT1-AT2 Baz2B R765E): 30.8 ± 6.9 nM
- Kd (TAM-AT1-AT2 Baz2B R760E): 93.6 ± 38.2 nM
- Kd (TAM Baz2B): 468 nM
- Kd (TAM-AT1-AT2 Baz2B R837E): 108 ± 9.3 nM
- Kd (TAM-AT1-AT2 Baz2B [5]): 116 ± 50.9 nM

B4: rDNA enhancer (En dsDNA) (dsDNA)
DNA 1: TGGATCTTTTTTTTTTTTTTTCTTTTTCCTCCA
DNA 2: TGGAGGAAAAAGAAAAAAAAAAAAAAAGATCCA
- binding result (GST-AT1-AT2 Baz2A): binds
